System: human Oct-1 E30D/M33L (rodent-like);VP16ΔC;HCF-1N380 (beta-propeller domain) (Homo sapiens;HSV-1;Homo sapiens)
Assay: EMSA
Conditions: 10 mM Hepes pH 7.9, 75 mM KCl, 1 mM EDTA, 10 mM DTT, 1 µg poly-dI-dC, up to 4 µl reticulocyte lysate, room temperature 20 min; 4% native gel in 1x …

## ICP0 (OCTA+)TAATGARAT probe
  binding signal (fold reduction of VIC vs wild type Oct-1): > 100

Reference: paper PMC3285597
